Results as given in the RNAGym collection of RNA variant scans (doi:10.1021/acssynbio.7b00057).

B1: Pistol ribozyme (parent)
chain: GGGUCGUUGUUCCAUAAUCGCGUGGAUAUGGCACGCAAGUUUCUACCGGGCACCGUAAAUGUCCGACUGGAGCCGUUCGGGCGGCUAUAAACAGACCUCAGGCCCGAAGCGUGGCGGCACCUGCCGCCGGUGGUAAAAAAGAUCGGAAGAGCACACGUCU

Variants of: B1
Assay: aptazyme ON/OFF ratio, guanine; higher = stronger switching; co-transcriptional cleavage with and without guanine

In order of falling “aptazyme ON/OFF ratio” value:
1. U7C U8A U10G U11C C12A  1.62
2. U7C U8A U10G U11C C12G  1.53
3. U7C U8A U10G C13A  1.52
4. U7C U8A G9U U10G C12U  1.41
5. U7C U8A G9U U11A C12A C13U  1.41
6. U7C U8A U10G U11C C12U C13U  1.41
7. U7C U8A U10C U11G C12G  1.37
8. U7C U8A U11C C12G  1.36
9. U7C U8A U10A U11A C12U C13G  1.35
10. U7C U8A U11C C12A  1.35
11. U7C U8A U10C U11G C12U C13U  1.35
12. U7C U8A U10G U11C C12U C13A  1.35
13. U7C U8A U10G U11G C13U  1.32
14. U7C U8A U10A C12U C13U  1.3
15. U7C U8A U10G U11A C12G C13U  1.29
16. U7C U8A U10G C13U  1.28
17. U7C U8A U10C U11G C12U C13A  1.28
18. U7C U8A U10G U11G C12U  1.28
19. U7C U8A G9U U10G C12U C13U  1.27
20. U7C U8A G9U U10G U11G C12G  1.26
21. U7C U8A U10C U11C C12G  1.25
22. U7C U8A G9U U10G U11G C12U  1.25
23. U7C U8A G9U U10G C12U C13G  1.25
24. U7C U8A U10C C12A C13U  1.24
25. U7C U8A U10A U11G C12U  1.24
26. U7C U8A U10A U11A C12U C13A  1.23
27. U7C U8A U10G U11C C12U C13G  1.23
28. U7C U8A G9U U11A C12U C13G  1.23
29. U7C U8A U10G U11G C13A  1.23
30. U7C U8A U10A C12U C13A  1.22
31. U7C U8A G9U U11A C12U C13U  1.22
32. U7C U8A G9U U11G  1.21
33. U7C U8A G9U U11C C12A C13U  1.2
34. U7C U8A G9U U11A C13A  1.2
35. U7C U8A U10G U11G C12A  1.2
36. U7C U8A U10A U11G C12G  1.19
37. U7C U8A G9U U11A C12A  1.19
38. U7C U8A G9U U11A C12A C13G  1.18
39. U7C U8A U10A C12U C13G  1.18
40. U7C U8A U10G U11G C12G  1.18
41. U7C U8A U10G U11A C12G C13G  1.18
42. U7C U8A U10G U11G C12G C13G  1.17
43. U7C U8A U10C U11G C12U  1.17
44. U7C U8A U10C C12A C13A  1.17
45. U7C U8A U10C U11C C12A  1.17
46. U7C U8A G9U U11C C12U  1.17
47. U7C U8A G9U U11A C13U  1.17
48. U7C U8A G9U U10G U11G C12A  1.16
49. U7C U8A U10C U11G C12U C13G  1.16
50. U7C U8A G9U U11A C12U C13A  1.16
51. U7C U8A U10C U11G C12G C13A  1.15
52. U7C U8A G9U U11C C12G  1.14
53. U7C U8A U10G C13G  1.14
54. U7C U8A G9U U11A C12G  1.14
55. U7C U8A U10A U11A C12U C13U  1.13
56. U7C U8A G9U U11C C12A  1.13
57. U7C U8A G9U U10G C12A  1.12
58. U7C U8A G9U U10G U11A C12U C13A  1.12
59. U7C U8A U10G U11G C13G  1.12
60. U7C U8A U10G U11A C12G C13A  1.12
61. U7C U8A G9U U10G U11A C12U C13G  1.11
62. U7C U8A U10C U11G C12A  1.1
63. U7C U8A G9U U10G U11A C12U C13U  1.1
64. U7C U8A G9U U11C C12A C13A  1.1
65. U7C U8A G9U U10G C12U C13A  1.1
66. U7C U8A U10C U11C C12U  1.09
67. U7C U8A U10G U11C C12U  1.09
68. U7C U8A G9U U10G C12G  1.08
69. U7C U8A G9U U11A C12A C13A  1.08
70. U7C U8A G9U U11A  1.08
71. U7C U8A U10C U11G C12G C13G  1.08
72. U7C U8A U10C U11G C12G C13U  1.08
73. U7C U8A U10C C12A C13G  1.07
74. U7C U8A G9U U11C  1.07
75. U7C U8A G9U U11C C12A C13G  1.07
76. U7C U8A U10A U11C C12A C13G  1.06
77. U7C U8A U10A U11C C12A C13U  1.06
78. U7C U8A U10A U11C C12A C13A  1.06
79. U7C U8A U10A U11G C12A  1.06
80. U7C U8A G9U U11A C12U  1.06
81. U7C U8A G9U U11A C13G  1.05
82. U7C U8A U10A U11C C13G  1.04
83. U7C U8A U10A U11C C13A  1.03
84. U7C U8A U10A U11C C13U  1.01
